IntAct's records for PubMed 31515488

B1: Protein unc-45 homolog A (Homo sapiens), Q9H3U1 (parent)
chain: MTVSGPGTPEPRPATPGASSVEQLRKEGNELFKCGDYGGALAAYTQALGLDATPQDQAVLHRNRAACHLKLEDYDKAETEASKAIEKDGGDVKALYRRSQALEKLGRLDQAVLDLQRCVSLEPKNKVFQEALRNIGGQIQEKVRYMSSTDAKVEQMFQILLDPEEKGTEKKQKASQNLVVLAREDAGAEKIFRSNGVQLLQRLLDMGETDLMLAALRTLVGICSEHQSRTVATLSILGTRRVVSILGVESQAVSLAACHLLQVMFDALKEGVKKGFRGKEGAIIVDPARELKVLISNLLDLLTEVGVSGQGRDNALTLLIKAVPRKSLKDPNNSLTLWVIDQGLKKILEVGGSLQDPPGELAVTANSRMSASILLSKLFDDLKCDAERENFHRLCENYIKSWFEGQGLAGKLRAIQTVSCLLQGPCDAGNRALELSGVMESVIALCASEQEEEQLVAVEALIHAAGKAKRASFITANGVSLLKDLYKCSEKDSIRIRALVGLCKLGSAGGTDFSMKQFAEGSTLKLAKQCRKWLCNDQIDAGTRRWAVEGLAYLTFDADVKEEFVEDAAALKALFQLSRLEERSVLFAVASALVNCTNSYDYEEPDPKMVELAKYAKQHVPEQHPKDKPSFVRARVKKLLAAGVVSAMVCMVKTESPVLTSSCRELLSRVFLALVEEVEDRGTVVAQGGGRALIPLALEGTDVGQTKAAQALAKLTITSNPEMTFPGERIYEVVRPLVSLLHLNCSGLQNFEALMALTNLAGISERLRQKILKEKAVPMIEGYMFEEHEMIRRAATECMCNLAMSKEVQDLFEAQGNDRLKLLVLYSGEDDELLQRAAAGGLAMLTSMRPTLCSRIPQVTTHWLEILQALLLSSNQELQHRGAVVVLNMVEASREIASTLMESEMMEILSVLAKGDHSPVTRAAAACLDKAVEYGLIQPNQDGE
B2: SR-related and CTD-associated factor 8 (Homo sapiens), Q9UPN6 (parent)
chain: MEAVKTFNSELYSLNDYKPPISKAKMTQITKAAIKAIKFYKHVVQSVEKFIQKCKPEYKVPGLYVIDSIVRQSRHQFGQEKDVFAPRFSNNIISTFQNLYRCPGDDKSKIVRVLNLWQKNNVFKSEIIQPLLDMAAGIPPPVVTPVLASTTTAMSNTPGTPVTPVTPANVVQGLPDPWVSQITNTDTLAAVAQILQSPQGQQLQQLIQTLQIQQQKPQPSILQALDAGLVVQLQALTAQLTAAAAAANTLTPLEQGVSFNKKLMDRFDFGEDSEHSEEPKKEIPASQLSHVSESVNNSIFHQIAEQLQQQNLEHLRQQLLEQQQPQKATPQDSQEGTFGSEHSASPSQGSSQQHFLEPEVNLDDSIDIQQQDMDIDEGQDGVEEEVFEQEAKKVAVRSRSRTHSRSRSRSPRKRRSRSRSGSRKRKHRKRSRSRSRERKRKSSRSYSSERRAREREKERQKKGLPPIRSKTLSVCSTTLWVGQVDKKATQQDLTNLFEEFGQIESINMIPPRGCAYVCMVHRQDAFRALQKLSSGSYKIGSKVIKIAWALNKGVKTEYKQFWDVDLGVTYIPWEKVKVDDLEGFAEGGMIDQETVNTEWETVKSSEPVKETVQTTQSPTPVEKETVVTTQAEVFPPPVAMLQIPVAPAVPTVSLVPPAFPVSMPVPPPGFSPIPPPPFLRASFNPSQPPPGFMPPPVPPPVVPPPTIPPVVPTSLVQPSLSMTPETVKDVGFGSLVIPGGSVASNLATSALPAGNVFNAPTKQAEPEEKVPHLIDHQISSGENTRSVIPNDISSNAAILGGQPPNVTSNSGILGVQRPNVSSNSEILGVRPSNVSSSSGIIAAQPPNILNNSGILGIQPPSVSNSSGLLGVLPPNIPNNSGLVGVQPPNVPNTPGLLGTQPPAGPQNLPPLSIPNQRMPTMPMLDIRPGLIPQAPGPRFPLIQPGIPPQRGIPPPSVLDSALHPPPRGPFPPGDIFSQPERPFLAPGRQSVDNVTNPEKRIPLGNDNIQQEGDRDYRFPPIETRESISRPPPVDVRDVVGRPIDPREGPGRPPLDGRDHFGRPPVDIRENLVRPGIDHLGRRDHFGFNPEKPWGHRGDFDEREHRVLPVYGGPKGLHEERGRFRSGNYRFDPRSGPWNRGFGQEVHRDFDDRRRPWERQRDRDDRDFDFCREMNGNRLGRDRIQNTWVPPPHARVFDYFEGATSQRKGDNVPQVNGENTERHAQPPPIPVQNDPELYEKLTSSNEINKEKSDTVADIESEPVVESTETEGT
partner: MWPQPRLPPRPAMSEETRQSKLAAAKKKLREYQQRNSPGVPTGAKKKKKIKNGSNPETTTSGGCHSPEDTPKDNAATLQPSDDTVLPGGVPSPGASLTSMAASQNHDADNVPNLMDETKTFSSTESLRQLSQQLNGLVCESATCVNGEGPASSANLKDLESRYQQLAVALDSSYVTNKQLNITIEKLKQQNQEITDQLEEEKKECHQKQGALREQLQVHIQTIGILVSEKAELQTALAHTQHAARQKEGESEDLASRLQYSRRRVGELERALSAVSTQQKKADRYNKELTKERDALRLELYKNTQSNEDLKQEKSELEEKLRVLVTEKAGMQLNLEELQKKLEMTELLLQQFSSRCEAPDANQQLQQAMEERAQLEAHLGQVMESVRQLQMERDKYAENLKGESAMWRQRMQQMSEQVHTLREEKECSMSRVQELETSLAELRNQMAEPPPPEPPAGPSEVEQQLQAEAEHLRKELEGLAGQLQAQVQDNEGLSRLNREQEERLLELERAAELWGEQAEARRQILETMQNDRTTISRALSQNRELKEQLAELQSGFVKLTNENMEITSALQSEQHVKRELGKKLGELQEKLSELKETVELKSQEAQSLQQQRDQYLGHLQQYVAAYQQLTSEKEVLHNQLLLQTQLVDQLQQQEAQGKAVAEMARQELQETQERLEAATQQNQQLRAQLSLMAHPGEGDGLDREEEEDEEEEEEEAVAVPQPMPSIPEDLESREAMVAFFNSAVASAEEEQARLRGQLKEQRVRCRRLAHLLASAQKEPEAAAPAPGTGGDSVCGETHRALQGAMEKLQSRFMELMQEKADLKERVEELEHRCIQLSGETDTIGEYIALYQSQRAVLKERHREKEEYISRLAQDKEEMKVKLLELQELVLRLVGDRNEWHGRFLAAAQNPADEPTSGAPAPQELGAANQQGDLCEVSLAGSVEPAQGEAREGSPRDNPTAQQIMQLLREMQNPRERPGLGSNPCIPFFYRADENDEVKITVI
B3: Protein FAM9B (Homo sapiens), Q8IZU0 (parent)
chain: MAAWGKKHAGKDPVRDECEERNRFTETREEDVTDEHGEREPFAETDEHTGANTKKPEDTAEDLTAKRKRMKMDKTCSKTKNKSKHALRKKQLKRQKRDYIHSLKLLNVLEEYITDEQKEEEEEEGEEEELIRIFQEQQKKWQQYRSVRRERLKEMKLLRDQFVKALEDFEDLCDRVFSDEDSELDN
partner: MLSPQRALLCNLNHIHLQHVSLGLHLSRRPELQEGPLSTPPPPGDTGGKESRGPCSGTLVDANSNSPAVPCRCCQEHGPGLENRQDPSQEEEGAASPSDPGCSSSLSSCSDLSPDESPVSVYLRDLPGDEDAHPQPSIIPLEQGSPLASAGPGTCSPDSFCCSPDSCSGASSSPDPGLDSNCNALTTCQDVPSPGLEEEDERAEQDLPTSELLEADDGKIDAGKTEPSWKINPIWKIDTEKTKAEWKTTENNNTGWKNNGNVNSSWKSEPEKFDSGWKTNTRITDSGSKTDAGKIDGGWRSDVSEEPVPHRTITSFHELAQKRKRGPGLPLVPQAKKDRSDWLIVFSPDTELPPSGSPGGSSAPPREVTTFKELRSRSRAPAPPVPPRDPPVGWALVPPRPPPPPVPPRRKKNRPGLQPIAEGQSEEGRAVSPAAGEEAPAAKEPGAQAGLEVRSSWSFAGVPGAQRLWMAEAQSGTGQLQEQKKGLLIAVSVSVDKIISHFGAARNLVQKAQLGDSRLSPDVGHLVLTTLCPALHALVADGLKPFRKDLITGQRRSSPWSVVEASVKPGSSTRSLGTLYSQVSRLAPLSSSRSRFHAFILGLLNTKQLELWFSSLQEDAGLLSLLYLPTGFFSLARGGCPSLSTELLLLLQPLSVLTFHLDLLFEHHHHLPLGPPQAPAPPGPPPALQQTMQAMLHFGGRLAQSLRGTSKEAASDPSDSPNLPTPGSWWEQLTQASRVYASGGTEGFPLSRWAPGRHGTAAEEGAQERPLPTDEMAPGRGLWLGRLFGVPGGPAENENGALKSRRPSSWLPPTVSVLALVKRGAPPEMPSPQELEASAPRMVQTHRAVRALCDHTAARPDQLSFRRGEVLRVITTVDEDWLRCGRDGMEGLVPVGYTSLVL
B4: Lymphotoxin-alpha (Homo sapiens), P01374 (parent)
chain: MTPPERLFLPRVCGTTLHLLLLGLLLVLLPGAQGLPGVGLTPSAAQTARQHPKMHLAHSTLKPAAHLIGDPSKQNSLLWRANTDRAFLQDGFSLSNNSLLVPTSGIYFVYSQVVFSGKAYSPKATSSPLYLAHEVQLFSSQYPFHVPLLSSQKMVYPGLQEPWLHSMYHGAAFQLTQGDQLSTHTDGIPHLVLSPSTVFFGAFAL
partner: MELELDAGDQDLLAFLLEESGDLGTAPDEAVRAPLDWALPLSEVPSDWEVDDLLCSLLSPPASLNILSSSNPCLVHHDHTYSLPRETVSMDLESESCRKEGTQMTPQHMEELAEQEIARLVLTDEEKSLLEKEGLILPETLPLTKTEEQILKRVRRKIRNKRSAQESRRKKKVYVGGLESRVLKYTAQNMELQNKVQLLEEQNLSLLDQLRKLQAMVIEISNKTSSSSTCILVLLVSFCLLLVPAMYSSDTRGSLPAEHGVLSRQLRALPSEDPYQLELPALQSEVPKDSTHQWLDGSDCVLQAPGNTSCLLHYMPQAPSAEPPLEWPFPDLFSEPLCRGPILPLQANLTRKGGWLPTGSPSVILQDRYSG
B5: Rho guanine nucleotide exchange factor 3 (Homo sapiens), Q9NR81 (parent)
chain: MVAKDYPFYLTVKRANCSLELPPASGPAKDAEEPSNKRVKPLSRVTSLANLIPPVKATPLKRFSQTLQRSISFRSESRPDILAPRPWSRNAAPSSTKRRDSKLWSETFDVCVNQMLTSKEIKRQEAIFELSQGEEDLIEDLKLAKKAYHDPMLKLSIMTEQELNQIFGTLDSLIPLHEELLSQLRDVRKPDGSTEHVGPILVGWLPCLSSYDSYCSNQVAAKALLDHKKQDHRVQDFLQRCLESPFSRKLDLWNFLDIPRSRLVKYPLLLREILRHTPNDNPDQQHLEEAINIIQGIVAEINTKTGESECRYYKERLLYLEEGQKDSLIDSSRVLCCHGELKNNRGVKLHVFLFQEVLVITRAVTHNEQLCYQLYRQPIPVKDLLLEDLQDGEVRLGGSLRGAFSNNERIKNFFRVSFKNGSQSQTHSLQANDTFNKQQWLNCIRQAKETVLCAAGQAGVLDSEGSFLNPTTGSRELQGETKLEQMDQSDSESDCSMDTSEVSLDCERMEQTDSSCGNSRHGESNV
B6: Tuftelin-interacting protein 11 (Homo sapiens), Q9UBB9 (parent)
chain: MSLSHLYRDGEGRIDDDDDERENFEITDWDLQNEFNPNRQRHWQTKEEATYGVWAERDSDDERPSFGGKRARDYSAPVNFISAGLKKGAAEEAELEDSDDEEKPVKQDDFPKDFGPRKLKTGGNFKPSQKGFAGGTKSFMDFGSWERHTKGIGQKLLQKMGYVPGRGLGKNAQGIINPIEAKQRKGKGAVGAYGSERTTQSMQDFPVVDSEEEAEEEFQKELSQWRKDPSGSKKKPKYSYKTVEELKAKGRISKKLTAPQKELSQVKVIDMTGREQKVYYSYSQISHKHNVPDDGLPLQSQQLPQSGKEAKAPGFALPELEHNLQLLIDLTEQEIIQNDRQLQYERDMVVNLFHELEKMTEVLDHEERVISNLSKVLEMVEECERRMQPDCSNPLTLDECARIFETLQDKYYEEYRMSDRVDLAVAIVYPLMKEYFKEWDPLKDCTYGTEIISKWKSLLENDQLLSHGGQDLSADAFHRLIWEVWMPFVRNIVTQWQPRNCDPMVDFLDSWVHIIPVWILDNILDQLIFPKLQKEVENWNPLTDTVPIHSWIHPWLPLMQARLEPLYSPIRSKLSSALQKWHPSDSSAKLILQPWKDVFTPGSWEAFMVKNIVPKLGMCLGELVINPHQQHMDAFYWVIDWEGMISVSSLVGLLEKHFFPKWLQVLCSWLSNSPNYEEITKWYLGWKSMFSDQVLAHPSVKDKFNEALDIMNRAVSSNVGAYMQPGARENIAYLTHTERRKDFQYEAMQERREAENMAQRGIGVAASSVPMNFKDLIETKAEEHNIVFMPVIGKRHEGKQLYTFGRIVIYIDRGVVFVQGEKTWVPTSLQSLIDMAK
partner: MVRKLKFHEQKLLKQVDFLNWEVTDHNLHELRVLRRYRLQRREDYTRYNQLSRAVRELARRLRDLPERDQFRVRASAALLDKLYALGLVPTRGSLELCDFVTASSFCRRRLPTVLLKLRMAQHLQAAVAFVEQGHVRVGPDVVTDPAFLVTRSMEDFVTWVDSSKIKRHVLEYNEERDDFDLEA

Variants of: B1
Settings: with max_human MAX

Row | Variant | effect of a mutation on the interaction
1 | Q251E | with no effect

Variants of: B2
Settings: with goga2_human GOLGA2, Q08379

Row | Variant | effect of a mutation on the interaction
2 | M1173V | with no effect

Variants of: B3
Settings: with rusc1_human RUSC1, Q9BVN2

Row | Variant | effect of a mutation on the interaction
3 | R23H | with no effect

Variants of: B4
Settings: with creb3_human CREB3, O43889

Row | Variant | effect of a mutation on the interaction
4 | T60N | with no effect

Variants of: B5
Settings: with tri23_human TRIM23, P36406
tri23_human TRIM23, P36406, sequence (P36406 whole entry): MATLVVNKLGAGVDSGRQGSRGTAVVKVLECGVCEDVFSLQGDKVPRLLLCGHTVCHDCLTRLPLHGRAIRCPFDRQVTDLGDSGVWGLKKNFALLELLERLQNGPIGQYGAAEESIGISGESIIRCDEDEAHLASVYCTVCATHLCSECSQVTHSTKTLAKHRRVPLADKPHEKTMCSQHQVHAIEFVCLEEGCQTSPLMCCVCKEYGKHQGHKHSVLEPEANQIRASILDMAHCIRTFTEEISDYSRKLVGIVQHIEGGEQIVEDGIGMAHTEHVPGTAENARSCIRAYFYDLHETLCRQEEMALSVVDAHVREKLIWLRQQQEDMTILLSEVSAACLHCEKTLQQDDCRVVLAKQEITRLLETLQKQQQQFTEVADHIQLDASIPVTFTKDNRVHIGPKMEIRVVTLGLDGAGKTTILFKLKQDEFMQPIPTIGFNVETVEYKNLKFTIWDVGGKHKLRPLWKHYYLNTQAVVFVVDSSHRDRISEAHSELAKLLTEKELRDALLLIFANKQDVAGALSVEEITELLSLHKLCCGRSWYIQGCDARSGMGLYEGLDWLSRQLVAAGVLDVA

Row | Variant | effect of a mutation on the interaction
5 | N432S | with no effect

Variants of: B6
Settings: with imp3_human IMP3, Q9NV31

Row | Variant | effect of a mutation on the interaction
6 | R8Q | with no effect
